Data taken from patent US20100159032A1.

Assays:
[1] = molecular target: Gln^3-Aβ(3-11)a, Gln^3-amyloid β-peptide(3-11)a (Artificial Sequence)
[2] = molecular target: Gln^3-Aβ(3-21)a, Gln^3-amyloid β-peptide(3-21)a (Artificial Sequence)
[3] = molecular target: Glucagon(3-29) (Homo sapiens (Human)) (UniProt P01275)
[4] = molecular target: Gln^3-Aβ(3-40), Gln^3-amyloid β-peptide(3-40) (Artificial Sequence)

Q: For “recombinant human QC (glutaminyl cyclase) (from UniProt Q16769) (enzyme)”, which kcat/KM [1] is on record?
A: 267000 M⁻¹ s⁻¹

Q: What about the kcat/KM [2] of the same substance?
A: 383000 M⁻¹ s⁻¹

Q: And the kcat/KM [3]?
A: 526000 M⁻¹ s⁻¹

Q: And the kcat/KM [4]?
A: 449000 M⁻¹ s⁻¹
